For the assay, the target named is CS40 anti-ManLAM monoclonal antibody. Description: competitive ELISA, ManLAM-coated plate, CS40 mixed with peptide; at 50 µg/ml peptide.

The molecule ISLTEWSMWYRH [B11 synthetic peptide (…)] came in with a decrease in OD (inhibition of CS40 binding to ManLAM) of 100%.

Values taken from patent US20070292447A1.
